Patent publication US7132258

Target: Gal4 DBD fusion of the LBD of hRARα (human)
Test: cell-based or functional assay

For “full-length RAC3 expressed from pCMX.F.RAC3 (FLAG and HA epitope at the N-terminus) (from UniProt Q9Y6Q9 2-1424)”, the ligand-dependent transcriptional activation by Gal4 DBD fusion of RAR on a Gal4-dependent luciferase reporter, A549 cells, 100 nM atRA was 2 fold.
